The record followed here is US6565869 (ISTITUTO DI RICERCHE DI BIOLOGIA MOLECOLARE P ANGELETTI S P …, dated 2003).

T1: CNTF receptor-α (CNTFRα) (UniProt P26992 23-342, limits assumed)
T1 construct: also called CNTFRa; CNTF a-receptor
T1 sequence (looked up): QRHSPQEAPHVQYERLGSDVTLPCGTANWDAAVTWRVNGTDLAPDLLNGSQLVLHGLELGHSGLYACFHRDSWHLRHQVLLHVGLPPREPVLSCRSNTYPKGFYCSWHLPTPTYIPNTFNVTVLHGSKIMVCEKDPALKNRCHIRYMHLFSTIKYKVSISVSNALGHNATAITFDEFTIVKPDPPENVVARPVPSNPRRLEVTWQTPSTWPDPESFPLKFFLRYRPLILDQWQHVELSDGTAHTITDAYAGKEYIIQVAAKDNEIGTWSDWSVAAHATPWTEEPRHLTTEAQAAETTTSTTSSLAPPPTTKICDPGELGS

B1: (Ser166Asp/Gln167Ala/Thr169Leu) hCNTF (ligand)
chain: MAFTEHSPLTPHRRDLCSRSIWLARKIRSDLTALTESYVKHQGLNKNINLDSADGMPVASTDQWSELTEAERLQENLQAYRTFHVLLARLLEDQQVHFTPTEGDFHQAIHTLLLQVAAFAYQIEELMILLEYKIPRNEADGMPINVGDGGLFEKKLWGLKVLQELDAWLVRSIHDLRFISSHQTGIPARGSHYIANNKKM
B2: (Thr169Ile/His174Ala) hCNTF (ligand)
chain: MAFTEHSPLTPHRRDLCSRSIWLARKIRSDLTALTESYVKHQGLNKNINLDSADGMPVASTDQWSELTEAERLQENLQAYRTFHVLLARLLEDQQVHFTPTEGDFHQAIHTLLLQVAAFAYQIEELMILLEYKIPRNEADGMPINVGDGGLFEKKLWGLKVLQELSQWIVRSIADLRFISSHQTGIPARGSHYIANNKKM
notes: also called (Thr169Ile/His174Ala) hCNTP
B3: (Ser166His/Gln167Ala) hCNTF (ligand)
chain: MAFTEHSPLTPHRRDLCSRSIWLARKIRSDLTALTESYVKHQGLNKNINLDSADGMPVASTDQWSELTEAERLQENLQAYRTFHVLLARLLEDQQVHFTPTEGDFHQAIHTLLLQVAAFAYQIEELMILLEYKIPRNEADGMPINVGDGGLFEKKLWGLKVLQELHAWTVRSIHDLRFISSHQTGIPARGSHYIANNKKM
B4: (Ser166Asp/Gln167His) hCNTF (ligand)
chain: MAFTEHSPLTPHRRDLCSRSIWLARKIRSDLTALTESYVKHQGLNKNINLDSADGMPVASTDQWSELTEAERLQENLQAYRTFHVLLARLLEDQQVHFTPTEGDFHQAIHTLLLQVAAFAYQIEELMILLEYKIPRNEADGMPINVGDGGLFEKKLWGLKVLQELDHWTVRSIHDLRFISSHQTGIPARGSHYIANNKKM
notes: also called DH-CNTF; DH-hCNTF
B5: (Val161Leu/Gln167Ala) hCNTF (ligand)
chain: MAFTEHSPLTPHRRDLCSRSIWLARKIRSDLTALTESYVKHQGLNKNINLDSADGMPVASTDQWSELTEAERLQENLQAYRTFHVLLARLLEDQQVHFTPTEGDFHQAIHTLLLQVAAFAYQIEELMILLEYKIPRNEADGMPINVGDGGLFEKKLWGLKLLQELSAWTVRSIHDLRFISSHQTGIPARGSHYIANNKKM
B6: (Ser166Gly/Gln167Ala) hCNTF (ligand)
chain: MAFTEHSPLTPHRRDLCSRSIWLARKIRSDLTALTESYVKHQGLNKNINLDSADGMPVASTDQWSELTEAERLQENLQAYRTFHVLLARLLEDQQVHFTPTEGDFHQAIHTLLLQVAAFAYQIEELMILLEYKIPRNEADGMPINVGDGGLFEKKLWGLKVLQELGAWTVRSIHDLRFISSHQTGIPARGSHYIANNKKM
B7: (Val170Arg/His174Ala) hCNTF (ligand)
chain: MAFTEHSPLTPHRRDLCSRSIWLARKIRSDLTALTESYVKHQGLNKNINLDSADGMPVASTDQWSELTEAERLQENLQAYRTFHVLLARLLEDQQVHFTPTEGDFHQAIHTLLLQVAAFAYQIEELMILLEYKIPRNEADGMPINVGDGGLFEKKLWGLKVLQELSQWTRRSIADLRFISSHQTGIPARGSHYIANNKKM

In this test the target is T1, CNTF receptor-α (CNTFRα). Kind of test: solid phase binding assay on CNTFRα. As to the method: The relative binding affinities to CNTF receptor-α (CNTFRα) of hCNTF and different hCNTF variants were determined by solid phase binding assay as previously described (10). […] These variants, like DH-CNTF, have increased utility for treatment of obesity and associated diseases, such as diabetes.
Regarding B1, the “Relative Binding (hCNTF = 1)” value was 21 relative (hCNTF = 1). Then B2, with 0.07 relative (hCNTF = 1).

Take B3: the “Relative Binding (hCNTF = 1)” value was 8.8 relative (hCNTF = 1). As to B4, the “Relative Binding (hCNTF = 1)” value is 22.8 relative (hCNTF = 1). Then B5, with 8.8 relative (hCNTF = 1); and B6, with 7.5 relative (hCNTF = 1). For the molecule B7, the “Relative Binding (hCNTF = 1)” value is 3.3 relative (hCNTF = 1).
